The results in this text go back to US20230235072A1 (DENALI THERAPEUTICS, published 2023).

Sequences and labels used below:
B1: Clone CH2C.3 (designed binder)
chain: PCPAPELLGGPSVFLFPPKPKDTLMISRTPEVTCVVVDPQTPPWEVKFNWYVDGVEVHNAKTKPREEEYYSNYRVVSVLTVLHQDWLNGKEYKCKVSNKALPAPIEKTISKAKGQPREPQVYTLPPSRDELTKNQVSLTCLVKGFYPSDIAVEWESNGQPENNYKTTPPVLDSDGSFFLYSKLTVDKSRWQQGNVFSCSVMHEALHNHYTQKSLSLSPGK
B2: Clone CH2C.5 (designed binder)
chain: B1 chain with P42V
B3: Clone CH2C.2 (designed binder)
chain: B1 chain with Q40P, T41S
B4: Clone CH2C.7 (designed binder)
chain: B1 chain with Q40P, T41V
notes: found on phage
B5: Clone CH2C.1 (designed binder)
chain: B1 chain with S71T, N72Y
B6: Clone CH2C.8 (designed binder)
chain: B1 chain with Q40A, T41F, S71Q
B7: Clone CH2C.6 (designed binder)
chain: B1 chain with Q40K, T41M, S71T, N72Y
B8: Clone CH3B.11 (designed binder)
chain: PCPAPELLGGPSVFLFPPKPKDTLMISRTPEVTCVVVDVSHEDPEVKFNWYVDGVEVHNAKTKPREEQYNSTYRVVSVLTVLHQDWLNGKEYKCKVSNKALPAPIEKTISKAKGQPRFGLVTTLPPSRDELTKNQVSLTCLVKGFYPSDIAVEWESNGQPENNYKTTPPVLDSDGSFFLYSKLTVDKSRWQQGNVFSCSVMHEALHNHYGFHDLSLSPGK
B9: Clone CH3B.12 (designed binder)
chain: B8 chain with G119D, L120Y, H212S
B10: Clone CH3B.1 (designed binder)
chain: B8 chain with G119D, L120Y
B11: Clone CH3B.6 (designed binder)
chain: B8 chain with G119E, L120I
B12: Clone CH3B.2 (designed binder)
chain: B8 chain with G119D, L120M
B13: Clone CH3B.4 (designed binder)
chain: B8 chain with G119E, L120M
B14: Clone CH3B.5 (designed binder)
chain: B8 chain with G119E
B15: Clone CH3B.3 (designed binder)
chain: B8 chain with G119E, L120Y
B16: Clone CH3B.7 (designed binder)
chain: B8 chain with G119D, L120I
B17: Clone CH3B.9 (designed binder)
chain: B8 chain with L120M
B18: Clone CH3C.35.N390.1 (designed binder)
chain: PCPAPELLGGPSVFLFPPKPKDTLMISRTPEVTCVVVDVSHEDPEVKFNWYVDGVEVHNAKTKPREEQYNSTYRVVSVLTVLHQDWLNGKEYKCKVSNKALPAPIEKTISKAKGQPREPQVYTLPPSRDELTKNQVSLTCLVKGFYPSDIAVEWESYGTEWSNYKTTPPVLDSDGSFFLYSKLTVSKSEWQQGFVFSCSVMHEALHNHYTQKSLSLSPGK
B19: Clone CH3C.35.23.3.1 (designed binder)
chain: B18 chain with S162V, S188E
B20: Clone CH3C.35.23.1.1 (designed binder)
chain: B18 chain with Y157F, S188E
B21: Clone CH3C.35.23.6.1 (designed binder)
chain: B18 chain with Y157F, S162V, S188E
B22: Clone CH3C.35.20.1.1 (designed binder)
chain: B18 chain with Y157F, N163S, S188E
B23: Clone CH3C.35.S413 (designed binder)
chain: B18 chain with N163S
B24: Clone CH3C.35.23.2.1 (designed binder)
chain: B18 chain with S162A
B25: Clone CH2C.4 (designed binder)
chain: B1 chain with P39F, Q40R, T41G, S71H, N72D

Where a chain is given by its changes, count along the chain named.

For one test, the target named is T1, human transferrin receptor (TfR) ectodomain (ECD) (human, UniProt P02786 121-760, biotinylated where captured on streptavidin).
T1 construct: also called human TfR; huTfR
Briefly: ELISA, Fc-Fab fusion titrated on plate-coated human TfR; OD650. An excerpt: (§1) The CH2C variants were expressed as Fc fusions to Fab fragments by cloning into an expression vector containing an anti-BACE1 benchmark variable region sequence.
On the technique in general: ELISA stands for enzyme-linked immunosorbent assay.
As to B1, the binding result was “binds”.

For the molecule B2, the binding result is “binds”.

Take B3: the binding result was “binds”.

In the case of B4, the binding result is “binds”.

On to B5, for which the binding result is “binds”.

On to B6, for which the binding result was “no binding (tested: 1000 nM)”.

On to B7, for which the binding result was “binds”.

Another test concerns the target T1, human transferrin receptor (TfR) …. Description: phage ELISA, phage dilution series on plate-coated human TfR without and with holo-Tf; OD650.
Target sequence in this assay (P02786 121-760): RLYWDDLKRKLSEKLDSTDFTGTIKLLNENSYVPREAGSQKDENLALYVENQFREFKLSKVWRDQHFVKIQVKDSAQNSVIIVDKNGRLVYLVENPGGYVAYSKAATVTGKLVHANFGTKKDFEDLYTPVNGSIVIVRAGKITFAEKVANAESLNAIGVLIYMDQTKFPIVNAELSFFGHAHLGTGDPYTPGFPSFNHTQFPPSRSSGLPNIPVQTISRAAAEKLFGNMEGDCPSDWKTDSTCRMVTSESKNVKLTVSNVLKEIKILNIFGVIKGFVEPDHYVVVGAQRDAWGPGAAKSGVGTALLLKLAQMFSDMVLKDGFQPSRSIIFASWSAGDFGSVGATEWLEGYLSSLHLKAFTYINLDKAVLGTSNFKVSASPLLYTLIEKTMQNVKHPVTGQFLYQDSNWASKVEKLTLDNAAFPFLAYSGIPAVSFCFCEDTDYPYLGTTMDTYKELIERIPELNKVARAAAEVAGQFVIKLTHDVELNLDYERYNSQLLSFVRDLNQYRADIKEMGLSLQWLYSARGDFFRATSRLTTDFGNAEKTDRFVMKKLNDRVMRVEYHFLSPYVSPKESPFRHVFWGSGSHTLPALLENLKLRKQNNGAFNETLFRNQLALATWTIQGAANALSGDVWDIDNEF
For B8, the binding result is “binds”.

With B9, the binding result is recorded as “binds”.

A further test has the same target. Description: ELISA, Fc-Fab fusion (dimer format) titrated on plate-coated human TfR; OD650. Here is the method: Fc regions comprising the CH3B clone sequences were fused to Fab fragments and were assayed in a dimer format.
As a reminder, the EC50 (read off the curve) is the midpoint of the concentration-response curve. In the case of B10, the “EC50 (read off the curve)” value is approximately 4 nM.

As for B11, the binding result is “binds”.

With B12, the “EC50 (read off the curve)” value was approximately 4 nM.

As to B13, the binding result is reported as “binds”.

B14: the binding result was “binds”.

Turning to B15, the binding result was “binds”.

B16: the binding result is “binds”.

For B17, the binding result was “binds”.

For another test the target is unchanged. Description: SPR (Biacore), same protocol as previously described; form of human TfR not stated. In general terms: In SPR one partner is held on a chip, and binding of the other changes the refractive index at the surface.
Target sequence in this assay (P02786 121-760): as above
By Kd is commonly meant a measure of binding affinity in units of concentration. Read a high Kd as a looser complex. In turn, B18 had a Kd of 2000 nM.

The molecule B19 came in with a Kd of 1900 nM.

Take B20: the Kd came out at 750 nM.

In the case of B21, binding was characterised by a dissociation constant (Kd) of 2100 nM.

Take B22: the Kd amounted to 620 nM. Against the preceding molecule, the Kd is about 3.4-fold lower.

On to B23, for which binding was put at a Kd of 1700 nM.

B24 returned a Kd of 690 nM.

Another test addresses T2, cynomolgus transferrin receptor (TfR) ectodomain (ECD) (cynomolgus, UniProt Q5RDH6 121-760 (Pongo abelii entry), biotinylated where captured on streptavidin).
T2 construct: also called cyno TfR; cynoTfR
T2 chain: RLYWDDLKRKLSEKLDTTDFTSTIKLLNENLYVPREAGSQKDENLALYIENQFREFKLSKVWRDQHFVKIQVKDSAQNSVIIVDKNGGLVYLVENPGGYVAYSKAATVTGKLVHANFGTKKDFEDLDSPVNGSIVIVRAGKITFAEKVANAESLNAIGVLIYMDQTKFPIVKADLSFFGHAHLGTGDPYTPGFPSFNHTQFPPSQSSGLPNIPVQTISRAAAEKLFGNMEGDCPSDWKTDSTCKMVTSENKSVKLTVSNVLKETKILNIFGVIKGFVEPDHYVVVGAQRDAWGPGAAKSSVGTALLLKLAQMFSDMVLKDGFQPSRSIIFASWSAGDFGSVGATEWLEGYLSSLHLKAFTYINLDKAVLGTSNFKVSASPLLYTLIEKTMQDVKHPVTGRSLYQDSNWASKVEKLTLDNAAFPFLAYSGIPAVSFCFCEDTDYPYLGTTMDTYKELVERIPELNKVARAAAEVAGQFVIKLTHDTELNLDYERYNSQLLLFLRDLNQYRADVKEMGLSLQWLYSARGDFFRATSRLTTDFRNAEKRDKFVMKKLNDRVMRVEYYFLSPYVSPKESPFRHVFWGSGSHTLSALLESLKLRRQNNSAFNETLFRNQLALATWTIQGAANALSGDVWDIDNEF
Briefly: ELISA, Fc-Fab fusion (dimer format) titrated on plate-coated cyno TfR; OD650.
Turning to B10, the “EC50 (read off the curve)” value is approximately 3 nM.

Turning to B11, the binding result is “binds”.

For the molecule B12, the “EC50 (read off the curve)” value is approximately 2 nM.

With B13, the binding result is recorded as “binds”.

In the case of B14, the binding result was “binds”.

As to B15, the binding result is given as “binds”.

For B16, the binding result is given as “binds”.

With B17, the binding result is given as “binds”.

The next test has as its target T2, cynomolgus transferrin receptor (TfR) …. Briefly: ELISA, Fc-Fab fusion titrated on plate-coated cyno TfR; OD650.
From the text: as §1
With B1, the binding result is reported as “binds”.

For B25, the “EC50 (read off the curve)” value was approximately 8 nM.

Take B2: the binding result was “binds”.

For B3, the binding result is on record as “binds”.

As for B4, the binding result is listed as “binds”.

As for B5, the “EC50 (read off the curve)” value was approximately 8 nM.

As for B6, the binding result is “binds”.

Take B7: the binding result is listed as “binds”.
